Assay results taken from article PMC10833561.
Read-outs that look alike come from different tables or passages of the source.

Substance	expression_or_secretion (N-glycosylation at N171)	other (N-glycosylation at N171)	expression_or_secretion (N-glycosylation at N202)	other (N-glycosylation at N202)
SIVmac239 Env (envelope glycoprotein, gp120 V2 apex): T173I (in SIVmac239 K180S)	no change	abolishes		
SIVmac239 Env (envelope glycoprotein, gp120): S204G (in SIVmac239 K180S)			no change	decreases
